The target of assay [1] is T1, mature human TGF-beta 3 (human, UniProt P10600 301-412).
T1 sequence: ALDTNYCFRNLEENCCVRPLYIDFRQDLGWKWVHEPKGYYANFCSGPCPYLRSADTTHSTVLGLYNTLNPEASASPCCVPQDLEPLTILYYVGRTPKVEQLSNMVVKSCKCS
In words: cell-based or functional assay.

The target in assay [2] is T2, mature human TGF-beta 2 (human, UniProt P61812 303-414).
T2 sequence: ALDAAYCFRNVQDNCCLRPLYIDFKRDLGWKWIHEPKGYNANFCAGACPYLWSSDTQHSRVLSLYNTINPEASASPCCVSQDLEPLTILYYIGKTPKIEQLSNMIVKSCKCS
In words: cell-based or functional assay.

The target of assay [3] is T3, mature human TGF-beta 1 (human, UniProt P01137 279-390). In words: cell-based or functional assay.
T3 sequence (P01137 279-390 limits assumed): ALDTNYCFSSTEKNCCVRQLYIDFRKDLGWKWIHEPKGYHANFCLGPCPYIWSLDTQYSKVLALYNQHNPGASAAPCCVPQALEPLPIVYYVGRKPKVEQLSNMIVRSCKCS
For assay [4], the target named is T1, mature human TGF-beta 3. In words: SPR Biacore T200, TGF-beta amine-coupled (~150 RU), Fab as analyte; heterogeneous ligand fit, component 2 (KD2; believed non-occluded, representative). As to the method: (§1) Background subtraction binding curves were analysed using the Biacore™ T200 evaluation software (version 1.0) following standard procedures.
On the technique in general: In SPR one partner is held on a chip, and binding of the other changes the refractive index at the surface.

Assay [5] deals with T2, mature human TGF-beta 2. The assay is described as above. As to the method:
as §1

Assay [6] addresses T3, mature human TGF-beta 1. The assay is described as above. The procedure:
as §1

The target in assay [7] is TGF-beta produced and activated by BxPC3 cells. In words: cell-based or functional assay.
Assay [8] concerns the target T1, mature human TGF-beta 3. In words: SPR Biacore T200, TGF-beta amine-coupled (~150 RU), Fab as analyte; heterogeneous ligand fit, component 1 (Ka1; believed occluded, weak interaction). The procedure:
as §1

Assay [9] concerns the target T2, mature human TGF-beta 2. Described as above. As to the method: as §1
Assay [10] addresses T3, mature human TGF-beta 1. The description is as above. As to the method:
as §1

Assay [11] addresses T1, mature human TGF-beta 3. In words: SPR Biacore T200, TGF-beta amine-coupled (~150 RU), Fab as analyte; heterogeneous ligand fit, component 1 (KD1; believed occluded, weak interaction). The procedure:
as §1

Assay [12] concerns the target T2, mature human TGF-beta 2. The assay is described as above. The procedure:
as §1

Assay [13] concerns the target T3, mature human TGF-beta 1. The assay is described as above. As to the method: as §1
Assay [14] has as its target T1, mature human TGF-beta 3. In words: SPR Biacore T200, TGF-beta amine-coupled (~150 RU), Fab as analyte; heterogeneous ligand fit, component 2 (ka2; believed non-occluded, representative). As to the method: as §1
Assay [15] deals with T2, mature human TGF-beta 2. Described as above. The procedure: as §1
Assay [16] has as its target T3, mature human TGF-beta 1. The description is as above. As to the method: as §1
The target of assay [17] is T1, mature human TGF-beta 3. In words: SPR Biacore T200, TGF-beta amine-coupled (~150 RU), Fab as analyte; heterogeneous ligand fit, component 2 (kd2; believed non-occluded, representative). The procedure:
as §1

The target of assay [18] is T2, mature human TGF-beta 2. The description is as above. As to the method: as §1
The target of assay [19] is T3, mature human TGF-beta 1. The assay is described as above. As to the method: as §1
The target of assay [20] is T1, mature human TGF-beta 3. In words: SPR Biacore T200, TGF-beta amine-coupled (~150 RU), Fab as analyte; heterogeneous ligand fit, component 1 (Kd1; believed occluded, weak interaction). As to the method:
as §1

Assay [21] concerns the target T2, mature human TGF-beta 2. The assay is described as above. The procedure: as §1
In assay [22] the target is T3, mature human TGF-beta 1. The assay is described as above. As to the method:
as §1

For assay [23], the target named is T1, mature human TGF-beta 3. In words: cell-based or functional assay. This is another data set of the same source.
The target in assay [24] is T2, mature human TGF-beta 2. In words: cell-based or functional assay. The source holds these as a separate data set.
The target in assay [25] is T3, mature human TGF-beta 1. In words: cell-based or functional assay. The source holds these as a separate data set.
Assay [26] concerns the target TGF-beta produced and activated by BxPC3 cells. In words: cell-based or functional assay. This is another data set of the same source.
In assay [27] the target is T2, mature human TGF-beta 2. In words: X-ray crystal structure of the complex.

We go through five molecules from patent US20200407436A1 (published 2020).

Several values for one entry are separate records, joined by “and”; a condition that tells them apart may be missing. Equal entries are not always repeated.

As usually defined, the Kd is the concentration at which binding is half-saturated. Higher therefore signals a looser complex. One may read the kon as the rate constant with which the complex forms. One may read the koff as the rate constant with which the complex falls apart. Low values mean slow dissociation, high ones fast dissociation.

B1: 4856 rabbit Fab (Fab, V domains shown)
VH: QSLEESGGRLVTPGTPLTLTCTASGFSLSSYDMSWVRQAPGKGLEWIGIIYGGSGSTWYASWAKGRFTMSKTSTTVDLKITSPTTEDMATYFCARGRDGGAGGSRNGYSLWGQGTLVTVSS
VL: AYDMTQTPASVEVAVGGTVTIKCQASESIYSGLAWYQQTPGQRPKLLIYAASDLASGVPSRFKGSGSGTEYTLTISGVECADAATYYCQQTWTDGGIDNPFGGGTEVVVKR
notes: Rabbit variable regions cloned into rabbit Fab no hinge (VH) and rabbit kappa (VL) vectors, expressed in Expi-293 cells; also called BSN.4856.rbFab
As to B1, the “Geomean IC50, HEK-Blue TGF-beta reporter gene assay” value with mature human TGF-beta 3 [1] was 24.5 unit unclear (column head says nM, but r10 gives the nM value in brackets) and 0.54 nM; with mature human TGF-beta 2 [2], 0.3 unit unclear (column head says nM, but r10 gives the nM value in brackets) and 0.01 nM; in the assay with mature human TGF-beta 1 [3] it was 1.77 unit unclear (column head says nM, but r10 gives the nM value in brackets) and 0.04 nM. Also, the Kd with mature human TGF-beta 3 [4] came out at 1.65 nM; with mature human TGF-beta 2 [5] it was 0.606 nM; with mature human TGF-beta 1 [6] it was 0.112 nM; in the assay with mature human TGF-beta 3 [11], 12.4 nM; in the assay with mature human TGF-beta 2 [12], 1.69 nM; with mature human TGF-beta 1 [13], 6.3 nM. Also, in assay [7], the “Geomean IC50, BxPC3-HEK-Blue TGF-beta reporter gene co-culture assay” value stood at 3.7 nM. For the same molecule, the on-rate (kon) with mature human TGF-beta 3 [8] came to 63300 M⁻¹ s⁻¹; with mature human TGF-beta 2 [9], 38700 M⁻¹ s⁻¹; with mature human TGF-beta 1 [10], 50500 M⁻¹ s⁻¹; with mature human TGF-beta 3 [14], 873000 M⁻¹ s⁻¹; with mature human TGF-beta 2 [15], 632000 M⁻¹ s⁻¹; with mature human TGF-beta 1 [16], 455000 M⁻¹ s⁻¹. In addition, the koff is 0.00144 s⁻¹ with mature human TGF-beta 3 [17]; 0.000383 s⁻¹ with mature human TGF-beta 2 [18]; 5.08e-05 s⁻¹ in the assay with mature human TGF-beta 1 [19]; 0.000782 s⁻¹ with mature human TGF-beta 3 [20]; 6.55e-05 s⁻¹ with mature human TGF-beta 2 [21]; 0.000318 s⁻¹ in the assay with mature human TGF-beta 1 [22].

B2: humanised antibody 4856 Fab graft gL3gH23 (Fab, V domains shown)
VH: EVQLVESGGGLVKPGGSLRLSCAASGFSLSSYDMSWVRQAPGKGLEWIGIIYGGSGSTWYASWAKGRFTISRDSAKNSVYLQMNSLRAEDTAVYYCARGRDAGAGGSRNAYSLWGQGTLVTVSS
VL: AYDMTQSPSTLSASVGDRVTITCQASESIYSGLAWYQQKPGKAPKLLIYAASDLASGVPSRFSGSGSGTEYTLTISSLQPDDFATYYCQQTWTDGGIDNPFGGGTKVEIKR
For B2, the entries for the “Geometric mean IC50, HEK-Blue TGF-beta reporter gene assay” value with mature human TGF-beta 3 [23], with mature human TGF-beta 2 [24] and with mature human TGF-beta 1 [25] were 1.99 nM, 0.017 nM and 0.41 nM, respectively. In addition, the “Geometric mean IC50, BxPC3 and HEK-Blue TGF-beta reporter gene co-culture assay” value in assay [26] was 9.1 nM.

B3: humanised antibody 4856 Fab graft gL3gH20 (Fab, V domains shown)
VH: EVQLVESGGGLVKPGGSLRLSCAASGFSLSSYDMSWVRQAPGKGLEWISIIYGGSGSTWYASWAKGRFTMSKDSAKNSVYLQMNSLRAEDTAVYYCARGRDAGAGGSRNGYSLWGQGTLVTVSS
VL: AYDMTQSPSTLSASVGDRVTITCQASESIYSGLAWYQQKPGKAPKLLIYAASDLASGVPSRFSGSGSGTEYTLTISSLQPDDFATYYCQQTWTDGGIDNPFGGGTKVEIKR
With B3, the “Geometric mean IC50, HEK-Blue TGF-beta reporter gene assay” value with mature human TGF-beta 3 [23] is 0.302 nM; with mature human TGF-beta 2 [24], 0.011 nM; with mature human TGF-beta 1 [25], 0.038 nM. Also, the “Geometric mean IC50, BxPC3 and HEK-Blue TGF-beta reporter gene co-culture assay” value in [26] was 4.63 nM.

B4: humanised antibody 4856 Fab graft gL3gH29 (Fab, V domains shown)
VH: EVQLVESGGGLVKPGGSLRLSCAASGFSLSSYDMSWVRQAPGKGLEWIGIIYGGSGSTWYASWAKGRFTISRDSAKNSVYLQMNSLRAEDTAVYYCARGRDAGAGGSRDGYSLWGQGTLVTVSS
VL: AYDMTQSPSTLSASVGDRVTITCQASESIYSGLAWYQQKPGKAPKLLIYAASDLASGVPSRFSGSGSGTEYTLTISSLQPDDFATYYCQQTWTDGGIDNPFGGGTKVEIKR
As for B4, the “Geometric mean IC50, HEK-Blue TGF-beta reporter gene assay” value came out at 1.95 nM in the assay with mature human TGF-beta 3 [23], 0.016 nM in the assay with mature human TGF-beta 2 [24] and 0.255 nM in the assay with mature human TGF-beta 1 [25]. Moreover, in [26], the “Geometric mean IC50, BxPC3 and HEK-Blue TGF-beta reporter gene co-culture assay” value was 3.77 nM.

B5: scFv 4856 (scFv)
scFv: EVQLVESGGGLVKPGGSLRLSCAASGFSLSSYDMSWVRQAPGKCLEWIGIIYGGSGSTWYASWAKGRFTISRDSAKNSVYLQMNSLRAEDTAVYYCARGRDAGAGGSRNGYSLWGQGTLVTVSSGGGGSGGGGSGGGGSGGGGSAYDMTQSPSTLSASVGDRVTITCQASESIYSGLAWYQQKPGKAPKLLIYAASDLASGVPSRFSGSGSGTEYTLTISSLQPDDFATYYCQQTWTDGGIDNPFGCGTKVEIKRTENLYFQ
As for B5, the binding result with mature human TGF-beta 2 [27] is on record as “binds”.
